For this data set, the system named is AgrA L171A (Staphylococcus aureus SH1000). Put plainly: EMSA. The note with it: EMSA: 10 mM HEPES pH 7.6, 50 mM KCl, 1 mM EDTA, 2 mM DTT, 0.5% Triton X-100, 5% glycerol, 37 C; 1 uM AgrA (pre-incubated at 3 uM with 50 mM acetyl phosphate …).

“agr operon intergenic region P2-P3 probe”: the binding signal (% of wild-type binding) worked out at 50.

(Values after publication PMC4227749.)
